What all share (conditions): both partners purified
In test [1] the target is T1, Human (vertebrate) calmodulin (human, UniProt P0DP23 1-149).
T1 construct: also called CaM
Briefly: ITC; CaM (0.1 mM) in the cell, CnA-CBD peptide (1 mM) in the syringe, 5 µl injections; +35°C; 10 mM HEPES pH 7.5, 100 mM NaCl, 10 mM CaCl2.

Test [2] concerns the target T1, Human (vertebrate) calmodulin. Put plainly: SEC; CaM (200 µl at 176 µM) on Superdex 75 HR 10/30 with and without excess (625 µM) CnA-CBD peptide; 50 mM HEPES pH 7.5, 150 mM NaCl, 4 mM CaCl2. On the technique in general: Size exclusion chromatography separates by hydrodynamic size, large species first.
Test [3] shares this target. Put plainly: ITC; CaM (0.1 mM) in the cell, CnA-CBD peptide (1 mM) in the syringe, 5 µl injections; +30°C; 10 mM HEPES pH 7.5, 100 mM NaCl, 10 mM CaCl2.

This note sets out measurements from PMC2671406 (PLoS ONE, 2009).

As a reminder, the Kd is the equilibrium constant for the complex coming apart. A lower Kd goes with higher affinity. In general, stoichiometry N refers to a count of units in the complex or per binding partner.

B1: Peptide corresponding to the CaM binding domain of calcineurin A (residues 395-411) (peptide)
peptide: VIRNKIRAIGKMARVFS
notes: also called CnA-CBD; CnA-CBD peptide; source: bought: GL Biochem (Shanghai, China)
For the molecule B1, in test [1], the Ka was found to be 1.4e+06 M⁻¹, the Kd came to 700 nM and the dH was -5.7 kcal/mol. Moreover, in test [2], the “stoichiometry N” value was found to be 1. For the same molecule, in test [3], the Ka is 3.5e+06 M⁻¹, the Kd is 300 nM and the dH was -1.8 kcal/mol.
